Biological target: the molecule itself
Experiment: single-cell single-molecule pull-down

B1: mNG::AraD (mNG::3xFlag::AraD) (enzyme, E. coli, UniProt P08203 1-231, looked up)
chain: MLEDLKRQVLEANLALPKHNLVTLTWGNVSAVDRERGVFVIKPSGVDYSVMTADDMVVVSIETGEVVEGTKKPSSDTPTHRLLYQAFPSIGGIVHTHSRHATIWAQAGQSIPATGTTHADYFYGTIPCTRKMTDAEINGEYEWETGNVIVETFEKQGIDAAQMPGVLVHSHGPFAWGKNAEDAVHNAIVLEEVAYMGIFCRQLAPQLPDMQQTLLDKHYLRKHGAKAYYGQ
- stoichiometry N: 4

Source: article PMC5575849 (Developmental cell, 2017)
